The source of these data is article doi:10.1101/2020.08.16.252742 (bioRxiv, 2020).

In experiment [1] the target is HIV-1 NL4-3 Env glycoprotein (unlabelled) on HIV-1 Gag-GFP pseudovirions (HIV-1 group M subtype B, NL4-3 (pNL4-3), strain). In words: single-molecule photobleaching of immunostained virions.
The target in experiment [2] is HIV-1 JR-FL Env glycoprotein (unlabelled) on HIV-1 Gag-GFP pseudovirions (HIV-1 JR-FL, UniProt Q75760, strain). Described as above.

B1: anti-HIV-1 gp120 monoclonal antibody PGT145 (antibody, V domains shown)
VH: QVQLVQSGAEVKKPGSSVKVSCKASGNSFSNHDVHWVRQATGQGLEWMGWMSHEGDKTGLAQKFQGRVTITRDSGASTVYMELRGLTADDTAIYYCLTGSKHRLRDYFLYNEYGPNYEEWGDYLATLDVWGHGTAVTVSS
VL: EVVITQSPLFLPVTPGEAASLSCKCSHSLQHSTGANYLAWYLQRPGQTPRLLIHLATHRASGVPDRFSGSGSGTDFTLKISRVESDDVGTYYCMQGLHSPWTFGQGTKVEIK
Regarding B1, the binding result in experiment [1] and in experiment [2] was “binds” each time.

B2: anti-HIV-1 gp41 monoclonal antibody 10E8 (antibody, V domains shown)
VH: EVQLVESGGGLVKPGGSLRLSCSASGFDFDNAWMTWVRQPPGKGLEWVGRITGPGEGWSVDYAAPVEGRFTISRLNSINFLYLEMNNLRMEDSGLYFCARTGKYYDFWSGYPPGEEYFQDWGRGTLVTVSS
VL: SYELTQETGVSVALGRTVTITCRGDSLRSHYASWYQKKPGQAPILLFYGKNNRPSGVPDRFSGSASGNRASLTISGAQAEDDAEYYCSSRDKSGSRLSVFGGGTKLTVL
On to B2, for which the binding result in experiment [1] and in experiment [2] was “binds” in each case.
